How the values were obtained:
Assay in all cases: pull-down
GST-FliI LRR (mouse) = target: T1, GST-FliI LRR (mouse)
T1 sequence (Q9JJ28 whole entry, looked up): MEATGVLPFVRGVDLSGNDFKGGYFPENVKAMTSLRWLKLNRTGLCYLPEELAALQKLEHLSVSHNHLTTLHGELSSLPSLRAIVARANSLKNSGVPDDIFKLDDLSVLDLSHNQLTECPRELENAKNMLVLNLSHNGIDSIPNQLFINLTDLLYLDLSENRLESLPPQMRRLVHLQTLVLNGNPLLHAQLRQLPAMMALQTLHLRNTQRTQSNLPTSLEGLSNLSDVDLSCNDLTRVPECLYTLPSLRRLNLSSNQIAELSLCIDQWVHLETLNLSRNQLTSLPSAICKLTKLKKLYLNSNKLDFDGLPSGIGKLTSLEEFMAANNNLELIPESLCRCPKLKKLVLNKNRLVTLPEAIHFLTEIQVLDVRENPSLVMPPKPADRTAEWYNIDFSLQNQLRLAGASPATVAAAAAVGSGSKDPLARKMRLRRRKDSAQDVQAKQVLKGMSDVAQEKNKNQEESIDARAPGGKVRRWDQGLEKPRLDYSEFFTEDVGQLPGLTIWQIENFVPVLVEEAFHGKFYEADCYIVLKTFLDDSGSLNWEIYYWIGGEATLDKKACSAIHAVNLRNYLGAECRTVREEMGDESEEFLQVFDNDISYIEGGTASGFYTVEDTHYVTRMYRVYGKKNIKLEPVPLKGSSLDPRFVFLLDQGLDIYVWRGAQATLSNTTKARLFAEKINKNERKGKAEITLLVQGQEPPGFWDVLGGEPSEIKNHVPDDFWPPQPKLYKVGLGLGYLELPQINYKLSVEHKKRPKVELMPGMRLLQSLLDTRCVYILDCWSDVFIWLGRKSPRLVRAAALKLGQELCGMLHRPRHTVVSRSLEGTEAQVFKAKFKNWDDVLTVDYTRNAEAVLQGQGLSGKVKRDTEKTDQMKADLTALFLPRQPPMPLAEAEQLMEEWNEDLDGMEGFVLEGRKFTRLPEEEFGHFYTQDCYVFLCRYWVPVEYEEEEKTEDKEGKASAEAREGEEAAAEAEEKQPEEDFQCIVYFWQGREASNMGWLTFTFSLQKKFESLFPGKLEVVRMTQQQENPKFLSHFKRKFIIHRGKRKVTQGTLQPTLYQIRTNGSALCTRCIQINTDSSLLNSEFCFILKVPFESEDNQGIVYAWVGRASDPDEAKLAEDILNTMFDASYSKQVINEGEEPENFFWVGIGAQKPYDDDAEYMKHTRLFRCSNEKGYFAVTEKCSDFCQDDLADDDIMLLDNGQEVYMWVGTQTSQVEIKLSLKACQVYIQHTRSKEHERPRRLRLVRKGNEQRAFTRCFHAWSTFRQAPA

GST-FliI GLD 1–6 = target: T2, GST-FliI GLD 1–6 (mouse, UniProt Q9JJ28 398-1271)
T2 sequence (looked up): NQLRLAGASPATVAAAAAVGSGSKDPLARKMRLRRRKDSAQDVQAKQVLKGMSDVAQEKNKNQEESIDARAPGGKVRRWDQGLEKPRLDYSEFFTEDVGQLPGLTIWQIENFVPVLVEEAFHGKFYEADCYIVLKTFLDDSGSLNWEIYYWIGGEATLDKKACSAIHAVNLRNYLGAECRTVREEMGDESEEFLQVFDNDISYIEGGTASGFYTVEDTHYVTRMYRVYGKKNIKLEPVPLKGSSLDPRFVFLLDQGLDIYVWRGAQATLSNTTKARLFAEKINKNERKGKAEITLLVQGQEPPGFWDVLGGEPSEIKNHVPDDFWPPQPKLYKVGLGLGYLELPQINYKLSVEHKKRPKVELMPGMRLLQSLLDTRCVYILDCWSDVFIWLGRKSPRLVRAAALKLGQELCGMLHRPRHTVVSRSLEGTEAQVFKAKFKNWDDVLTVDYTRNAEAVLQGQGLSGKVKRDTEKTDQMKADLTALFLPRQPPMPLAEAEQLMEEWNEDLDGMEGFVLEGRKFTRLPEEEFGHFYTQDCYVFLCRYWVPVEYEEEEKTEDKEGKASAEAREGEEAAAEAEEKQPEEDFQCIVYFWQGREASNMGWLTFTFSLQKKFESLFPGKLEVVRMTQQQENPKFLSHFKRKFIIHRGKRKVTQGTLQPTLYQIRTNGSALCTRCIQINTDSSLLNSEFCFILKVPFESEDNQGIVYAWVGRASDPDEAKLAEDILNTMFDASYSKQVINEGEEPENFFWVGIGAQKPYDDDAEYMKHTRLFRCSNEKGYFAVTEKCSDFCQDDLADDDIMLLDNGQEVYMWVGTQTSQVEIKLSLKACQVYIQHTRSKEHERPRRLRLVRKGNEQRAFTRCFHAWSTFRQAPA

GST-FliI GLD 2–6 = target: T3, GST-FliI GLD 2–6 (mouse, UniProt Q9JJ28 619-1271)
T3 sequence (looked up): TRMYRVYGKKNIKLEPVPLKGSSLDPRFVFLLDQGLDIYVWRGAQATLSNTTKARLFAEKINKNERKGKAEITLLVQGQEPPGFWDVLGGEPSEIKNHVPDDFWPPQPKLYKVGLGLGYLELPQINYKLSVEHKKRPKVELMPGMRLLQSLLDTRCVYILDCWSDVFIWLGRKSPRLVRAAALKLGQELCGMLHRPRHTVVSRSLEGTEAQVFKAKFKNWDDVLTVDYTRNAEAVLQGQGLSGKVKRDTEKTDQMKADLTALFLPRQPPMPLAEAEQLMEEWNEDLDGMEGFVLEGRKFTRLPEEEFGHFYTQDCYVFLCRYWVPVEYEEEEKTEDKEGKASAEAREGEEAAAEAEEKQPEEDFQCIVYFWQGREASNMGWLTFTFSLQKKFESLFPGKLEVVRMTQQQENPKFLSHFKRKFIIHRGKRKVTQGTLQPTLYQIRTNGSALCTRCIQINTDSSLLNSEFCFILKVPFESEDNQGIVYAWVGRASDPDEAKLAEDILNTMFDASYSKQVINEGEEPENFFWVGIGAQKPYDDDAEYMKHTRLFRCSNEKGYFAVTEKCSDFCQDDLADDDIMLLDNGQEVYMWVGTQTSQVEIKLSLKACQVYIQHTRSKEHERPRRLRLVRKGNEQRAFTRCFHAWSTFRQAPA

Molecule	Kd (GST-FliI LRR (mouse)) [nM]	Kd (GST-FliI GLD 1–6) [nM]	Kd (GST-FliI GLD 2–6) [nM]
NMMIIA rods (residues 1338–1960) (from UniProt P35579 1338-1960) (domain or fragment)	5070	–	–
NMMIIA rods (residues 1338–1960) (domain or fragment, UniProt P35579 1338-1960, looked up) KNSFREQLEEEEEAKHNLEKQIATLHAQVADMKKKMEDSVGCLETAEEVKRKLQKDLEGLSQRHEEKVAAYDKLEKTKTRLQQELDDLLVDLDHQRQSACNLEKKQKKFDQLLAEEKTISAKYAEERDRAEAEAREKETKALSLARALEEAMEQKAELERLNKQFRTEMEDLMSSKDDVGKSVHELEKSKRALEQQVEEMKTQLEELEDELQATEDAKLRLEVNLQAMKAQFERDLQGRDEQSEEKKKQLVRQVREMEAELEDERKQRSMAVAARKKLEMDLKDLEAHIDSANKNRDEAIKQLRKLQAQMKDCMRELDDTRASREEILAQAKENEKKLKSMEAEMIQLQEELAAAERAKRQAQQERDELADEIANSSGKGALALEEKRRLEARIAQLEEELEEEQGNTELINDRLKKANLQIDQINTDLNLERSHAQKNENARQQLERQNKELKVKLQEMEGTVKSKYKASITALEAKIAQLEEQLDNETKERQAACKQVRRTEKKLKDVLLQVDDERRNAEQYKDQADKASTRLKQLKRQLEEAEEEAQRANASRRKLQRELEDATETADAMNREVSSLKNKLRRGDLPFVVPRRMARKGAGDGSDEEVDGKADGAEAKPAE	–	146	858
